In the supplement of paper PMC9170038:

Test system: K4 kissing-loop RNA reporter
Experiment: apparent KD of K4 kissing-loop reporter; higher = weaker reporter binding
Conditions: Eterna round: R107
Procedure: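 RNA-MaP round R107: designed RNA switches with theophylline, tryptophan, arginine or FMN aptamers are transcribed on-chip within common flanks. They are titrated with a labelled K4 kissing-loop RNA reporter in RNA-MaP buffer (100 mM Tris pH 7.5, 80 mM KCl, 4 mM MgCl2), without ligand or with the indicated ligand. Median apparent KD per design.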

[1] = input ligand: theophylline 20 uM
[2] = input ligand: tryptophan 2.4 mM
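Also: bound reporter read as fluorescence of individual clusters on recovered sequencing chips by microscopy, with normalized cluster intensities fitted with a binding model.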

| Sequence | apparent KD of K4 kissing-loop reporter (input ligand: FMN 200 uM) | apparent KD of K4 kissing-loop reporter (input ligand: arginine 13.2 mM) | apparent KD of K4 kissing-loop reporter (input ligand: none) | apparent KD of K4 kissing-loop reporter [1] | apparent KD of K4 kissing-loop reporter [2] |
| --- | --- | --- | --- | --- | --- |
| UAAAUAAUUCAAGGAUAUGUUUUCUAUUUCGAGUGAUGUUCGGUCUUAAUAAAUUUAAUAGAUUAUACAGAAGGUGAUGGAUAGU [Astrostest] | 162 nM | 164 nM | 130 nM | 188 nM | 99.8 nM |
| UUGAGGGAGAAUUAUAGUGAUGUUAUAAAGAAGGAUAUCCAAAGAAGGAGAAGGUCUAAGAGGGAAGGGAGGGAGGGAGGGAGGG [ExFMNA.C] | 380 nM | 131 nM | 281 nM | 97.1 nM | 202 nM |
| UAUAUAGUGACGGCCGCCACUAUUGUGAUGUUGUUGUUAGAGUGAUGUUUUGUUGUUUGAUUUUGUAGGACCGGGUUAUAUGUUA [ffdfzmullin] | 780 nM | 500 nM | 615 nM | 567 nM | 562 nM |
| GCAGUGAUGUUGCACGAGUACGGUAGAGUACGAGGACCGGUACGGCCGCCACUCGUACGGAACUGGCUAAUUUAUGGAAUGGUGA [II] | 383 nM | 463 nM | 1440 nM | 477 nM | 365 nM |
| GAAGGUCAAAGACCUUCGUGCACACCUGAUACCAGUCGCGAAAGCGACCCUUGGCAGCAGGGUAGUGAUGUUGCCAGUGCACAAA [#14 K4 Theophylline A Same State] | 865 nM | 735 nM | 797 nM | 595 nM | 732 nM |
| CGGUUUGGUUGAGAGGUUGGGCCGAAUGAUACCAGUAUAUAAGAAUACCCUUGGCAGCAUAAGAAAGAUAUAGUGAUGUUGUAUA [SSTheophA.J] | 475 nM | 537 nM | 495 nM | 513 nM | 507 nM |
| GGAUAGGACAGAGGAUAUGGAGAGUCUACAAAGUAGGCUCAUAAUCCUUGAAUGGAAGUGAUGUUUCUAGAAGGCUGUCCUAUCG [FmnBX 18 - #SwitchBubble #StaticStem #Palindromic] | 758 nM | 135 nM | 143 nM | 148 nM | 136 nM |
| AAGAAGAAUGGAAGGAGCGAGCAGAUAUAACCAGUGAUGUUGGAAAGCCUUAUUGCUUAAGCUCAGGUAGGUCGCCAAGAAGAGA [whbob_Ex_Arginine_B_2t152] | 179 nM | 159 nM | 179 nM | 192 nM | 184 nM |
| ACAUCGGUUGAGAGUGAUGUUCCUUGUGUUCGAGGACCGGUACGGCCGCCACUCGGGUAGAAAAUAACAGAUGUGUUUGAUUUUU [BDazzled - #16 SS Tryptophan A] | 163 nM | 88.4 nM | 144 nM | 308 nM | 244 nM |
| AAGUGAUGUUGUAGUGAUGUUGUGAUGUUGCAGGAUAUAUAGUGAUGUAGAAGGGUAUGUACUGAUUUUUUUUUUGAGUGAUGUU [awaqmullin] | 99.2 nM | 43 nM | 77.3 nM | 58.8 nM | 79.9 nM |
| UGUACCGAGUCAGGAUAUGGCGUCGAAAGACGAAUCUUAGUGAUGUUAAGGAUCUGCGAAAGCAGUCCAGAAGGGACUUGGUACU [FmnBS 26 U37+A49] | 236 nM | 422 nM | 495 nM | 444 nM | 475 nM |
| GCGUCGCAGGUCGCAGUACCAUCGCGGGAUACCAGCCCUGCUACCGGCCCUUGGCAGCCCGGUUAUCGGUUAGUGAUGUUAGCCA [theeternabot_sameState_KL_Theo_A_44] | 642 nM | 531 nM | 739 nM | 621 nM | 591 nM |
| AGUACGCCCAGUGAUACCAGCCCGCCUGGGCAGUGAUGUUGCUCGGGAAAUAAAAUAGAGGGCCCUUGGCAGCACACGGUAGUCC [Cees] | 186 nM | 144 nM | 189 nM | 107 nM | 174 nM |
| UUAGGGAUCUCGGCCGCCACUCGUGGGAAAUGGGCCUCAGGGAUAUAGUGAUGUUAUGUAAAGAAGAGGACCGGGAGAAGGAAGG [ExTryptoB.Di] | 451 nM | 364 nM | 476 nM | – | 155 nM |
| GCUAGCAUGGCAGGAUAUAGCUAUAGGAGUGAUGUUCCUUGGUAGGUGAGUGAUGUUCACUACCAACUAGAAGGGCCAUGCUAGC | 148 nM | 116 nM | 125 nM | 121 nM | 135 nM |
| AAAUAGAUCAGUCAACCAGUGAUGUUGGAAGGAGCGUGCGAAAGCACAGGUAGGUCGCCAGAAUAAAAUUGGCUGAUCAAAAUAA | 328 nM | 338 nM | 333 nM | 408 nM | 185 nM |
| AAGUUGAACUGAAGGAGCGAGAAAUAGAAUGUAAGAAUAUAUGCUAGUGAUGUUAGAAAUUCUCAGGUAGGUCGCAGUAAGAUUU [V1.1] | 277 nM | 328 nM | 330 nM | 558 nM | 192 nM |
| UGGACCUGACUCGAUACGAGUCAAUGAGAUACCAGCCACGAAAGUGGCCCUUGGCAGCUCUGCCAGUGAUGUUGGUCAAGGUCCU [#SwitchBubble 9 #StaticStem] | 1540 nM | 1140 nM | 1530 nM | 765 nM | 1360 nM |
| UAAGAAUAAGUAGCAGUGAUGUUGCUACUACGAGGACCGGUACGGCCGCCACUCGAGCCGUACCAACUGCUACAAGGUACGAAUA [(H1)-(H2)-(Trp1)-(Trp2)-(T)'-(H)'-(T)''] | 281 nM | 224 nM | 242 nM | 243 nM | 257 nM |
| AAGCAGUCACUCGUAGCCAUCGAAGAUGGUCGAGGACCGGUACGGCCGCCACUCGGAGUGAUGUUCCGAAGACUGCAAAAUAAAA | 272 nM | 313 nM | 337 nM | 378 nM | 364 nM |
| AACGUUUUGUGAAGGAGCGCGAAAAGCAGUGAUGUUGCUUACUUACAAUUUAGAUUUAACACGCAGGUAGGUCGCACAAUACGUA [JR_SSArginiB_Sub016] | 252 nM | 225 nM | 266 nM | 259 nM | 219 nM |
| CGUGGUGCCAAAGGAUAUCAUGCUAACGCGGUUGAGUGAUGUUCGACCCGAGAUAAGAGUGGGCAUUGAGAAGGUUGCGCAGAAG [theeternabot_sameState_KL_FMN_B_10] | 149 nM | 125 nM | 139 nM | 124 nM | 145 nM |
